Legend:
[1] = target: T1, 人LILRB4的重组蛋白 (phage library screening antigen) (human, UniProt Q8NHJ6 22-259, limits assumed); test: solid phase screening of phage library
T1 construct: May be the same protein as the immunogen or as m14

[2] = target: T2, 人LILRB4重组蛋白(购于义翘，Cat.16742-H08H) (human, UniProt Q8NHJ6 22-259); test: BLI (Octet QKe), antibody captured on AHC probe, antigen 100 nM, 1:1 Langmuir fit
T2 construct: Bought protein; also called human LILRB4 recombinant protein

[3] = target: T3, 人LILRB4 (on LILRB4-positive cells) (human, UniProt Q8NHJ6 22-448); test: flow cytometry on RPMI-8226 cells
T3 construct: whole, on cells; also called 人LILRB4阳性细胞THP-1细胞; 人LILRB4阳性细胞RPMI-8226细胞

[4] = target: T3, 人LILRB4 (on LILRB4-positive cells); test: cell-based or functional assay
[5] = target: T3, 人LILRB4 (on LILRB4-positive cells); test: flow cytometry on THP-1 cells

| Binder | binding result [1] | Kd [2] | koff [2] | kon [2] | EC50 [3] | EC50 of T cell activation (LILRB4 Effector Reporter cells with APOE/TCR Activator/CHO cells, luciferase) [4] | EC50 [5] |
| --- | --- | --- | --- | --- | --- | --- | --- |
| B2 (VHH, also called 噬菌体展示的纳米抗体B2) VHH: QVQLQESGGGPVQAGGSLRLSCAASEYSYRRHCMAWFRQAPGKEREGVATIYTGGGITRYADSVKGRFTISQDNAKNTVYLQMNSLKPEDTAMYYCAADIASRACVTDPFPLERARFSAWGQGTQVTVSS | binds | – | – | – | – | – | – |
| F1 (VHH, also called 噬菌体展示的纳米抗体F1) VHH: QVQLQESGGGLVQAGGSLRLSCAASEYSYRRHCMAWFRQAPGKEREGVATIYTGGGITRYADSVKGRFTISQDNAKNTVYLQMNSLKPEDTAMYYCAADIASRACVTDPFPLERARFSAWGQGTQVTVSS | binds | – | – | – | – | – | – |
| hzD2-1 (Fc fusion, Humanised VHH of D2 fused to human Fc, expressed in HEK293; also called D2人源化分子hzD2-1; hzD2-1人源化抗体; not shown: human Fc (hFc) from the expression vector) EVQLVESGGGLVQPGGSLRLSCAASGFTVSSDYMGWFRQAPGKEREGVACINTNGGETYHANSVSGRFTISRDNSKNTLYLQMNSLRAEDTAVYYCARGRTNPDSYGGSRCLLAPEYTYWGQGTLVTVSS | – | 1.03 nM | 0.000172 s⁻¹ | 167000 M⁻¹ s⁻¹ | 0.221 nM | – | – |

Continued, values first:

| binding result [1] | Kd [2] | koff [2] | kon [2] | EC50 [3] | EC50 of T cell activation (LILRB4 Effector Reporter cells with APOE/TCR Activator/CHO cells, luciferase) [4] | EC50 [5] | Binder |
| --- | --- | --- | --- | --- | --- | --- | --- |
| – | 0.948 nM | 0.000175 s⁻¹ | 185000 M⁻¹ s⁻¹ | 0.215 nM | – | – | hzD2-2 (Fc fusion, Humanised VHH of D2 fused to human Fc, expressed in HEK293; also called D2人源化分子hzD2-2; hzD2-2人源化抗体; not shown: human Fc (hFc) from the expression vector) EVQLVESGGGLVQPGGSLRLSCAASGYTASSDYMGWFRQAPGKEREGVACINTNGGETYHANSVSGRFTISRDNSKNTLYLQMNSLRAEDTAVYYCARGRTNPDSYGGSRCLLAPEYTYWGQGTLVTVSS |
| – | 0.721 nM | 0.00022 s⁻¹ | 305000 M⁻¹ s⁻¹ | 0.227 nM | 0.094 nM | 1.43 nM | 对照抗体193 (antibody, IgG1, V domains shown, Variable regions cloned into vectors with human kappa / IgG1 constant regions and expressed in HEK293; also called 同靶点对照抗体193) VH: EVQLVESGGGLVQPGGSLRLSCAASGFSLSSSYWISWVRQAPGKGLEWIGSIDSGSVGITYYATWVKGRFTISRDNSKNTLYLQMNSLRAEDTAVYYCARHGDNWALDLWGQGTLVTVSS VL: DIQMTQSPSTLSASVGDRVTITCRASQSINSWLAWYQQKPGKAPKLLIYKASTLASGVPSRFSGSGSGTEFTLTISSLQPDDAATYYCQHGYIRGDLDNVFGGGTKVEIK |
| binds | – | – | – | – | – | – | C3 (VHH, also called 噬菌体展示的纳米抗体C3) VHH: QVQLQESGGGLVQAGGSLRLSCVASEYIYTRCNMAWYRQAPGKERELVSAFDIGDTLYYADSVKGRFTISQDNAKNTVYLQMNSLKPEDTAMYYCNTVGVKPGGGSWCFNPDYWGQGTQVTVSS |
